# From the supplement of paper PMC7877785
# ± gives the uncertainty stated by the source.
# Assay: self-splicing fitness, log relative to wild type (ln ratio); higher = more splicing; Tetrahymena group I intron in knt gene, E. coli kanamycin selection, DiMSum; sequences stand for … in CUCUCU…GGAGGGAAAAGUUAUCAGGCAUGCACCUGGUAGCUAGUCUUUAAACCAAUAGAUUGCAUCGGUUUAAAAGGCAAGACCGUCAAAUUGCGGGAAAGGGGUCAACAGCCGUUCAGUACCAAGUCUCAGGGGAAACUUUGAGAUGGCCUUGCAAAGGGUAUGGUAAUAAGCUGACGGACAUGGUCCUAACCACGCAGCCAAGUCCUAAGUCAACAGAUCUUCUGUUGAUAUGGAUGCAGUUCACAGACUAAAUGUCGGUCGGGGAAGAUGUAUUCUUCUCAUAAGAUAUAGUCGGACCUCUCCUUAAUGGGAGCUAGCGGAUGAAGUGAUGCAACACUGGAGCCGCUGGGAACUAAUUUGUAUGCGAAAGUAUAUUGAUUAGUUUUGGAGUACUCGUGGUCG
# Method in brief: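 Pooled colonies went to amplicon sequencing on an Illumina HiSeq 2500 after six replicate transformations. The plates were LB agar with 100 μg/mL carbenicillin, 50 μM IPTG and 0.2% rhamnose, with or without 25 μg/mL kanamycin, incubated overnight at 37°C or 30°C. The E. coli BL21(DE3) library had all eight P1ex-region intron nucleotides randomised, the intron placed in the knt kanamycin-resistance gene on pET-22b(+). DiMSum fitness is the error-weighted combination of replicate fold changes, kanamycin against none, normalised to wild type.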
Sequence,self-splicing fitness (ln) (30 °C),self-splicing fitness (ln) (37 °C)
UUAUAGCAAUAUUACGUUCG,-0.942 ± 0.091,0.154 ± 0.14
UUAUAGCAAUAUUACGUUCU,-2.18 ± 0.15,-1.11 ± 0.16
UUCAAGCAAUAUUACGAAUC,-4.05 ± 0.3,-2.75 ± 0.32
UUCAAGCAAUAUUACGAAUU,-3.21 ± 0.24,-1.69 ± 0.27
UUCAAGCAAUAUUACGACAU,-1.614 ± 0.014,-0.69 ± 0.033
UUCAAGCAAUAUUACGAGUA,-0.831 ± 0.083,-0.136 ± 0.089
UUCAAGCAAUAUUACGAGUC,-3.3 ± 0.31,-1.93 ± 0.26
UUCAAGCAAUAUUACGAUAA,-0.317 ± 0.048,0.226 ± 0.059
UUCAAGCAAUAUUACGAUAU,-2.7 ± 0.18,-1.42 ± 0.18
UUCAAGCAAUAUUACGCACA,-0.531 ± 0.089,0.153 ± 0.13
UUCAAGCAAUAUUACGCAUU,-3.98 ± 0.26,-1.27 ± 0.13
UUCAAGCAAUAUUACGCCGA,-0.5 ± 0.18,-0.423 ± 0.23
UUCAAGCAAUAUUACGCGUA,-1.17 ± 0.14,-0.0781 ± 0.1
UUCAAGCAAUAUUACGCGUG,-3.38 ± 0.17,-2.13 ± 0.17
UUCAAGCAAUAUUACGGAGA,-1.55 ± 0.18,-1.32 ± 0.19
UUCAAGCAAUAUUACGGAGC,-2.66 ± 0.28,-1.8 ± 0.23
UUCAAGCAAUAUUACGGCGU,-1.61 ± 0.094,-0.465 ± 0.12
UUCAAGCAAUAUUACGUCAA,-0.772 ± 0.092,-0.645 ± 0.1
UUCAAGCAAUAUUACGUCCA,-1.12 ± 0.11,-0.803 ± 0.098
UUCAAGCAAUAUUACGUGAU,-1.8 ± 0.096,-0.468 ± 0.11
UUCAAGCAAUAUUACGUUCG,-1.96 ± 0.12,-1.44 ± 0.12
UUCCAGCAAUAUUACGAAAU,-2.78 ± 0.36,-1.58 ± 0.32
UUCCAGCAAUAUUACGACAC,-3.32 ± 0.19,-2.18 ± 0.19
UUCCAGCAAUAUUACGACGC,-3.25 ± 0.24,-3.03 ± 0.17

Sequence,self-splicing fitness (ln) (30 °C),self-splicing fitness (ln) (37 °C)
UUCCAGCAAUAUUACGACUA,-0.435 ± 0.097,-0.117 ± 0.085
UUCCAGCAAUAUUACGAGAC,-2.82 ± 0.27,-1.79 ± 0.32
UUCCAGCAAUAUUACGAGUC,-2.56 ± 0.13,-1.13 ± 0.15
UUCCAGCAAUAUUACGAUUC,-1.5 ± 0.17,-2.04 ± 0.27
UUCCAGCAAUAUUACGCACA,-0.0937 ± 0.12,-0.0969 ± 0.13
UUCCAGCAAUAUUACGCGCA,-0.0641 ± 0.12,-0.358 ± 0.14
UUCCAGCAAUAUUACGCGGA,-2.74 ± 0.24,-3.39 ± 0.33
UUCCAGCAAUAUUACGCGUA,-0.454 ± 0.087,0.0549 ± 0.083
UUCCAGCAAUAUUACGCGUC,-1.59 ± 0.16,-0.827 ± 0.18
UUCCAGCAAUAUUACGCGUU,-2.35 ± 0.1,-1.6 ± 0.1
UUCCAGCAAUAUUACGGACC,-1.77 ± 0.14,-0.818 ± 0.16
UUCCAGCAAUAUUACGGAUA,-0.966 ± 0.092,-0.56 ± 0.098
UUCCAGCAAUAUUACGGCGC,-2.61 ± 0.14,-0.177 ± 0.12
UUCCAGCAAUAUUACGGGUC,-2.91 ± 0.17,-2.12 ± 0.25
UUCCAGCAAUAUUACGGGUU,-2.05 ± 0.1,-1.39 ± 0.13
UUCCAGCAAUAUUACGGUUG,-2.43 ± 0.11,-1.75 ± 0.16
UUCCAGCAAUAUUACGUACU,,-1.82 ± 0.21
UUCCAGCAAUAUUACGUCAU,-3.65 ± 0.2,-2.72 ± 0.2
UUCCAGCAAUAUUACGUGGG,-3.68 ± 0.18,-2.56 ± 0.16
UUCCAGCAAUAUUACGUUAC,-3.45 ± 0.43,-2.57 ± 0.25
UUCGAGCAAUAUUACGAACG,-2.89 ± 0.29,-0.783 ± 0.33
UUCGAGCAAUAUUACGACAG,-2.81 ± 0.19,-1.5 ± 0.13
UUCGAGCAAUAUUACGAUGC,-1.44 ± 0.4,
UUCGAGCAAUAUUACGCAAG,-1.98 ± 0.4,-1.66 ± 0.48

Sequence,self-splicing fitness (ln) (30 °C),self-splicing fitness (ln) (37 °C)
UUCGAGCAAUAUUACGCCGA,-2.65 ± 0.22,-2.66 ± 0.33
UUCGAGCAAUAUUACGCCUU,-3.09 ± 0.26,-1.64 ± 0.26
UUCGAGCAAUAUUACGCUAG,-2.82 ± 0.26,-2.05 ± 0.42
UUCGAGCAAUAUUACGGACA,-2.7 ± 0.22,-1.79 ± 0.17
UUCGAGCAAUAUUACGGAUA,-2.76 ± 0.28,-2.08 ± 0.25
UUCGAGCAAUAUUACGGUAA,-1.85 ± 0.25,-1.55 ± 0.19
UUCGAGCAAUAUUACGGUCU,-5 ± 0.38,-5.45 ± 0.36
UUCGAGCAAUAUUACGUACA,-2.27 ± 0.22,-1.81 ± 0.15
UUCGAGCAAUAUUACGUAGU,-2.91 ± 0.29,-0.98 ± 0.25
UUCGAGCAAUAUUACGUCAG,-3.92 ± 0.43,0.987 ± 0.26
UUCGAGCAAUAUUACGUCAU,-2.56 ± 0.21,-3.46 ± 0.46
UUCGAGCAAUAUUACGUGUA,-2.65 ± 0.09,-1.86 ± 0.095
UUCUAGCAAUAUUACGACCU,-0.905 ± 0.42,-2.63 ± 0.44
UUCUAGCAAUAUUACGACGG,-1.31 ± 0.1,-1.77 ± 0.15
UUCUAGCAAUAUUACGACUU,-1.77 ± 0.24,-1.59 ± 0.19
UUCUAGCAAUAUUACGAUGU,-3.53 ± 0.42,-1.66 ± 0.2
UUCUAGCAAUAUUACGCAUC,-2.33 ± 0.42,-0.769 ± 0.29
UUCUAGCAAUAUUACGCAUG,-3.42 ± 0.16,-2.01 ± 0.18
UUCUAGCAAUAUUACGCCGU,-2.06 ± 0.46,-0.835 ± 0.34
UUCUAGCAAUAUUACGCCUA,-1.94 ± 0.29,-0.0729 ± 0.19
UUCUAGCAAUAUUACGCGCA,-0.451 ± 0.088,-0.191 ± 0.097
UUCUAGCAAUAUUACGCGUG,-2.22 ± 0.12,-0.708 ± 0.1
UUCUAGCAAUAUUACGCUAG,-3.41 ± 0.23,-2.42 ± 0.41
UUCUAGCAAUAUUACGGCAG,0.185 ± 0.42,-0.821 ± 0.39

Sequence,self-splicing fitness (ln) (30 °C),self-splicing fitness (ln) (37 °C)
UUCUAGCAAUAUUACGGCGG,-2.93 ± 0.16,-1.28 ± 0.13
UUCUAGCAAUAUUACGUACC,,-0.136 ± 0.48
UUCUAGCAAUAUUACGUAGG,-2.25 ± 0.24,-0.645 ± 0.31
UUCUAGCAAUAUUACGUCAG,-3.16 ± 0.37,-1.75 ± 0.26
UUCUAGCAAUAUUACGUCCU,-1.87 ± 0.38,-2.91 ± 0.36
UUCUAGCAAUAUUACGUCUU,-3.03 ± 0.29,-2.26 ± 0.23
UUGAAGCAAUAUUACGACGC,-0.722 ± 0.11,0.156 ± 0.14
UUGAAGCAAUAUUACGACUA,0.321 ± 0.098,0.141 ± 0.11
UUGAAGCAAUAUUACGAUAC,-2.62 ± 0.2,-2.62 ± 0.26
UUGAAGCAAUAUUACGAUAG,0.155 ± 0.071,0.398 ± 0.095
UUGAAGCAAUAUUACGCCAA,-0.371 ± 0.094,-0.324 ± 0.11
UUGAAGCAAUAUUACGCCCU,-0.0294 ± 0.13,0.698 ± 0.16
UUGAAGCAAUAUUACGCGAA,-0.789 ± 0.08,-0.585 ± 0.093
UUGAAGCAAUAUUACGCGCA,0.548 ± 0.12,0.381 ± 0.12
UUGAAGCAAUAUUACGCGGG,-1.95 ± 0.1,-0.668 ± 0.12
UUGAAGCAAUAUUACGCGUU,-3.35 ± 0.15,-0.906 ± 0.12
UUGAAGCAAUAUUACGCUAG,-0.524 ± 0.19,-0.328 ± 0.17
UUGAAGCAAUAUUACGGCGC,-2.04 ± 0.17,-0.68 ± 0.19
UUGAAGCAAUAUUACGGCUC,-3.8 ± 0.25,-1.42 ± 0.19
UUGAAGCAAUAUUACGGGUC,-3.77 ± 0.25,-1.71 ± 0.25
UUGAAGCAAUAUUACGUAAG,-0.735 ± 0.083,0.223 ± 0.12
UUGAAGCAAUAUUACGUACG,-0.166 ± 0.053,0.427 ± 0.074
UUGAAGCAAUAUUACGUAUU,-2.69 ± 0.12,-0.933 ± 0.12
UUGAAGCAAUAUUACGUCAG,0.252 ± 0.076,0.934 ± 0.11
